Reference: US20170015742A1 (published 2017)
Substitutions are numbered along the chain they refer to. Names and notes keep the numbering of the source. Blank lines part the entries; values can stand above or below the binder they belong to.

What was measured:
Assay in all cases: cell-based or functional assay
recombinant rat PDGF-BB = recombinant rat PDGF-BB (rat, UniProt Q05028 74-182)
[1] = target: recombinant murine PDGF-BB (mouse, UniProt P31240 82-190)
[2] = target: T1, recombinant cynomolgus PDGF-BB (cynomolgus monkey, UniProt P01127 82-190 (human entry), limits assumed)
T1 chain: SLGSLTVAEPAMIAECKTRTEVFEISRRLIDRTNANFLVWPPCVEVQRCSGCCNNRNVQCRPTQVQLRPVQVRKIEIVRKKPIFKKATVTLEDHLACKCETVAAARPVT

[3] = target: recombinant human PDGF-BB (human, UniProt P01127 82-190)

Chain of recombinant rat PDGF-BB (Q05028 74-182 limits assumed): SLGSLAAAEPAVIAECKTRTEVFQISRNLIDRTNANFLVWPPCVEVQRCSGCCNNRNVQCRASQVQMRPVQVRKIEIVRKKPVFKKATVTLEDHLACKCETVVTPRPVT
Chain of recombinant murine PDGF-BB (P31240 82-190 limits assumed): as the sequence (Q05028 74-182 limits assumed) above, with V83I, V102I counted along it

Potency IC50 (nM) ratPDGF-BB (NIH-3T3 proliferation) (recombinant rat PDGF-BB): 1.3 nM
Potency IC50 (nM) mPDGF-BB (NIH-3T3 proliferation) [1]: 0.096 nM
Potency IC50 (nM) cynoPDGF-BB (NIH-3T3 proliferation) [2]: 0.142 nM
Co-incubation Potency IC50 (nM) hPDGF-BB (NIH-3T3 proliferation, DVD-Ig pre-incubated with excess hVEGF165) [3]: 0.047 nM
B1: 4G8.3-SL-9E8.4 (g) anti-VEGF-A/anti-PDGF-BB DVD-Ig (PR-1572105) (bispecific antibody, human IgG1, kappa, L234A L235A)
heavy: EVQLVQSGSELKKPGASVKVSCKASGYTFTNYGMYWVRQAPGQGLEWMGWINTETGKPTYADDFKGRFVFSLDTSVSTAYLQISSLKAEDTAVYYCARTNYYYRSYIFYFDYWGQGTMVTVSSASTKGPEVTLRESGPALVKPTQTLTLTCTFSGFSLSTYGMGVGWIRQPPGKALEWLANIWWDDDKYYNPSLKNRLTISKDTSKNQVVLTMTNMDPVDTATYYCARIESIGTTYSFDYWGQGTMVTVSSASTKGPSVFPLAPSSKSTSGGTAALGCLVKDYFPEPVTVSWNSGALTSGVHTFPAVLQSSGLYSLSSVVTVPSSSLGTQTYICNVNHKPSNTKVDKKVEPKSCDKTHTCPPCPAPEAAGGPSVFLFPPKPKDTLMISRTPEVTCVVVDVSHEDPEVKFNWYVDGVEVHNAKTKPREEQYNSTYRVVSVLTVLHQDWLNGKEYKCKVSNKALPAPIEKTISKAKGQPREPQVYTLPPSREEMTKNQVSLTCLVKGFYPSDIAVEWESNGQPENNYKTTPPVLDSDGSFFLYSKLTVDKSRWQQGNVFSCSVMHEALHNAYTQKSLSLSPGK
light: DTVLTQSPATLSLSPGERATLSCRASESVSTHMHWYQQKPGQAPRLLIYGASNLESGVPARFSGSGSGTDFTLTISSLEPEDFAVYFCQQSWNDPFTFGQGTKLEIKRTVAAPSVFIFPPEFVLTQSPGTLSLSPGERATLSCERSSGDIGDSYVSWYQQKPGQAPRLVIYADDQRPSGIPDRFSGSGSGTDFTLTISRLEPEDFAVYYCQSYDINIDIVFGGGTKVEIKRTVAAPSVFIFPPSDEQLKSGTASVVCLLNNFYPREAKVQWKVDNALQSGNSQESVTEQDSKDSTYSLSSTLTLSKADYEKHKVYACEVTHQGLSSPVTKSFNRGEC

Potency IC50 (nM) ratPDGF-BB (NIH-3T3 proliferation) (recombinant rat PDGF-BB): 0.994 nM
Potency IC50 (nM) mPDGF-BB (NIH-3T3 proliferation) [1]: 0.15 nM
Potency IC50 (nM) cynoPDGF-BB (NIH-3T3 proliferation) [2]: 0.144 nM
Co-incubation Potency IC50 (nM) hPDGF-BB (NIH-3T3 proliferation, DVD-Ig pre-incubated with excess hVEGF165) [3]: 0.038 nM
B2: hVEGF 4G8.3-SL-hPDGF 9E8.4 [hu IgG1/k] mut(234, 235) H435A (PR-1569579) (bispecific antibody)
heavy: B1 heavy
light: B1 light with R231G

Potency IC50 (nM) ratPDGF-BB (NIH-3T3 proliferation) (recombinant rat PDGF-BB): 0.038 nM
Potency IC50 (nM) mPDGF-BB (NIH-3T3 proliferation) [1]: 0.032 nM
Potency IC50 (nM) cynoPDGF-BB (NIH-3T3 proliferation) [2]: 0.035 nM
Co-incubation Potency IC50 (nM) hPDGF-BB (NIH-3T3 proliferation, DVD-Ig pre-incubated with excess hVEGF165) [3]: 0.04 nM
B3: 9E10.1_GS_CL-33675 anti-VEGF-A/anti-PDGF-BB DVD-Ig (PR-1610561) (bispecific antibody, human IgG1, kappa, L234A L235A)
heavy: EIQLVQSGSELKKPGASVKVSCKASGYTFTNYGMYWVKQAPGQGLEYMGWIDTETGRPTYADDFKGRFVFSLDTSVSTAYLQISSLKAEDTAVYFCARWSGDTTGIRGPWFAYWGQGTLVTVSSGGGGSGGGGSEVTLRESGPALVKPTQTLTLTCTFSGFSLSTYGMGVGWIRQPPGKALEWLANIWWDDDKYYNPSLKNRLTISKDTSKNQVVLTMTNMDPVDTATYYCARIESSGPKYSFDYWGQGTMVTVSSASTKGPSVFPLAPSSKSTSGGTAALGCLVKDYFPEPVTVSWNSGALTSGVHTFPAVLQSSGLYSLSSVVTVPSSSLGTQTYICNVNHKPSNTKVDKKVEPKSCDKTHTCPPCPAPEAAGGPSVFLFPPKPKDTLMISRTPEVTCVVVDVSHEDPEVKFNWYVDGVEVHNAKTKPREEQYNSTYRVVSVLTVLHQDWLNGKEYKCKVSNKALPAPIEKTISKAKGQPREPQVYTLPPSREEMTKNQVSLTCLVKGFYPSDIAVEWESNGQPENNYKTTPPVLDSDGSFFLYSKLTVDKSRWQQGNVFSCSVMHEALHNAYTQKSLSLSPGK
light: DIRMTQSPSSLSASVGDRVTIECLASEDIYSDLAWYQQKPGKSPKLLIYNANGLQNGVPSRFSGSGSGTDYSLTISSLQPEDVATYFCQQYNYFPGTFGQGTKLEIKGGSGGGGSGGEIVLTQSPGTLSLSPGERATLSCRASSGSIWYSFVSWYQQKPGQAPRLLIYADDQRASGIPDRFSGSGSGTDFTLTISRLEPEDFAVYYCQSYGINIDVVFGGGTKVEIKRTVAAPSVFIFPPSDEQLKSGTASVVCLLNNFYPREAKVQWKVDNALQSGNSQESVTEQDSKDSTYSLSSTLTLSKADYEKHKVYACEVTHQGLSSPVTKSFNRGEC
